The target in experiment [1] is truncated zymogen of plasmepsin I (pro-tPMI) (P. falciparum). In words: SAXS.
In experiment [2] the target is truncated zymogen of histo-aspartic protease (pro-tHAP) (P. falciparum). Description: crystal structure.
The target of experiment [3] is truncated zymogen of plasmepsin II, wild type (pro-tPMII) (P. falciparum). Description: SEC.

Broadly, the stoichiometry N is the number of molecules, sites or subunits per partner or assembly. Consider “truncated zymogen of plasmepsin I (pro-tPMI) (enzyme)”, for which, in experiment [1], the stoichiometry N was 2.

Turning to “truncated zymogen of histo-aspartic protease (pro-tHAP) (enzyme)”, in experiment [2], the stoichiometry N was found to be 2. Substance “truncated zymogen of plasmepsin II, wild type (pro-tPMII) (enzyme)” yielded a stoichiometry N in experiment [3] of 2.

(Values after PMC9116133.)
